Drawing on patent publication US20020094544A1, this text covers increase in basal level fluorescence (binding of BODIPY-FL-GTPγS to receptor arrays) for one substance.

Assay [1] has as its target Human opioid receptor subtype µ (human) (UniProt P35372). In words: cell-based or functional assay.
Assay [2] deals with Human opioid receptor subtype δ2 (human) (UniProt P41143). As to the kind of experiment: cell-based or functional assay.
Human opioid receptor subtype δ2 (human), sequence (P41143 whole entry, stated change not applied): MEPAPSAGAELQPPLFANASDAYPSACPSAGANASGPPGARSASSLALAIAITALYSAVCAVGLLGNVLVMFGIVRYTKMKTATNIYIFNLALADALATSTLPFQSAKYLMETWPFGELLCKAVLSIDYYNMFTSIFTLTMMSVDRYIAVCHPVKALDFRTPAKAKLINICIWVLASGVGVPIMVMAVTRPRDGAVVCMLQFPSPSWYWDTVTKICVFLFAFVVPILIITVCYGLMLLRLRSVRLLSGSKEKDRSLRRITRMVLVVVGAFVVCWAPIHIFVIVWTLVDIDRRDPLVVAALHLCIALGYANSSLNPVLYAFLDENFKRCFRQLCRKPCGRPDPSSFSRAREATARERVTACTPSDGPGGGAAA

Human opioid receptor subtype µ (human), sequence (P35372 whole entry): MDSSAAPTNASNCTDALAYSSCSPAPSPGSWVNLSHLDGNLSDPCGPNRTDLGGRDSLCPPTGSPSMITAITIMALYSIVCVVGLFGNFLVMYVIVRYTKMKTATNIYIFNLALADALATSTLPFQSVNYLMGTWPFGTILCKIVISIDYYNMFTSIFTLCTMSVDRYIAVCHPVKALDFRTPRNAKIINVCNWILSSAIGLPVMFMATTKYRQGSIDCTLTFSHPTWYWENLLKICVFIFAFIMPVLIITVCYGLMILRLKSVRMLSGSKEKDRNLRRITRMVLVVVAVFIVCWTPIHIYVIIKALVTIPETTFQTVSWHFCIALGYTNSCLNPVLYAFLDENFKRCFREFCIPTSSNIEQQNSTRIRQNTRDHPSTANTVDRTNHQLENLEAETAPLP

On to “dynorphin A (from UniProt P01213 207-223) (peptide)”, for which the increase in basal level fluorescence (binding of BODIPY-FL-GTPγS to receptor arrays) is 2.5 fold in assay [1] and 10 fold in assay [2].
